Biological target: Cyclosorus parasiticus chalcone synthase 1 (CpCHS1) (Cyclosorus parasiticus)
Test: crystal structure; sitting-drop vapor diffusion at 20°C; 0.2 M sodium chloride, 0.1 M Tris-HCl pH 8.0, 20% w/v PEG 4000; apo form at 1.9 Å, complexes with naringenin and with naringenin + CoA at 2.4 Å; molecular replacement with 6DXB

Substance: Cyclosorus parasiticus chalcone synthase 1 (CpCHS1) (enzyme)
- stoichiometry N: 2
